This series is described as follows: label from the status in PepcDB records.
For the sequence “MFQSKSRTSLTNKKTLLFGLISVFLCGMGFSIIMPVVPFLVTPYVTNASDQALMVTLLTSVYAFCVFFAAPGLGALSDRFGRRPVLLICFIGSAIGYFIFGLGGALWVLFLGRIIEGITGGSISTLFAFFADITPQEERTKYFGWVSAAAGAGAALGPAFGGLLAHFGYAMPFFFGATITFINFLFGYFYMPESLDDANRLKRIPLMRLNPFSQLLNILTIKNLGRLLIAAFFIWVPNGSLQAVMSQFAIDSFSWKPALIGMMFSIMGIQDILSQAFVMPKLLIRLTDKQIAVLGMIAEIIGYSLIATSSIFTLAPLLVIGMFVFGFGDSIFGPSFNGMVSKAASASEQGRIQGGSQAIQSLARIIGPIIGGQIYITLGHAAPAIMGVLLITVAIFILYKKTSLAK”, the protein production result is “failed”.

Turning to “MRPDLSRVPGVLGEIARKRASEVAPYPLPEPPSVPSFKEALLRPGLSVIAEVKRQSPSEGLIREVDPVEAALAYARGGARAVSVLTEPHRFGGSLLDLKRVREAVDLPLLRKDFVVDPFMLEEARAFGASAALLIVALLGELTGAYLEEARRLGLEALVEVHTERELEIALEAGAEVLGINNRDLATLHINLETAPRLGRLARKRGFGGVLVAESGYSRKEELKALEGLFDAVLIGTSLMRAPDLEAALRELVG”, the protein production entry is given as “not failed”.

With “MQDLIKQYNTTLRQLREAQKDAKEEDVKVLTDMISDITYSLEWMKKARRPGNRRGVERLAAYQRERACDPLLMQRYFRSMDDNLYEWDNHQQEHSIGEWDKVRLEDALSLLTEREKEVYLMSRGYCLTYREIARYLDITCSTVQSMIERAEKKIARQVNESLFCNCG”, the protein production entry is given as “failed”.

“MVKRANTFAMRPLTADDEQVLRDLLDASAALWNEINYQRLMRYNDKDGFEDEDVWDADTGALEGKYKAVLGASTAQTVRRANTEAWRSFFRLKKQFHDESNTSVTEHPEPPGFRGNKDDGRVLKGVVRKDAYSVEWGDRSRLEMVVGEQLRDRHNSPKSRLRLEIVGDPNWSDYEDQGRLELWYDETDCTFRASQPVTVSDDARATPLANEKAALDIGANNLVACTTTTGQQYLYEGRELFQRFRETTREIARLQSKLPEGRYSSKRIRRLYRKRTRRRDHAQETLCRDLLEQLYGEGVDTVYIGGLTDVLETHWSAETNAKTHNFWAFKQFTERLAWTADEYGISVEVRSEAWTSQECPQCGSTDRTTRQQDTLTCPCGFEGHADVTASETFLERHTEKAVRPMARPVRFEWDDHEWSESPRSPARESPKEQRTDPSTVPRDGNVVSGDSLEHHHHHH”: the protein production result is on record as “failed”.

For “MIMVSGCQQQKEETPFYYGTWDEGRAPGPTDGVKSATVTFTEDEVVETEVMEGRGEVQLPFMAYKVISQSTDGSIEIQYLGPYYPLKSTLKRGENGTLIWEQNGQRKTMTRIESKTGREEKDEKSKSLEHHHHHH”, the protein production entry is listed as “not failed”.

As to “MAKKTSSKWYSTSAFSRLEKLGLRHPKPSPFIGNLTFFRQGFWESQMELRKLYGPLCGYYLGRRMFIVISEPDMIKQVLVENFSNFTNRMASGLEFKSVADSVLFLRDKRWEEVRGALMSAFSPEKLNEMVPLISQACDLLLAHLKRYAESGDAFDIQRCYCNYTTDVVASVAFGTPVDSWQAPEDPFVKHCKRFFENVELLGTPWLQVYNNFPALLDARILPNKNRDELNGFFNKLIRNVIALRDQQAAEERRRDFLQMVLDARHSASPMGVQDFDIVRDVFSSTGCKPNPSRQHQPSPMARPLTVDEIVGQAFIFLIAGYEIITNTLSFATYLLATNPDCQEKLLREVDVFKEKHMAPEFCSLEEGLPYLDMVIAETLRMYPPAFRFTREAAQDCEVLGQRIPAGAVLEMAVGALHHDPEHWPSPETFNPERFTAEARQQHRPFTYLPFGAGPRSCLGVRLGLLEVKLTLLHVLHKFRFQACPETQVPLQLESKSALGPKNGVYIKIVSRHHHH”, the protein production entry was “failed”.

As to “MKLSMQMLKKSSLIPSDLTDTLLLVGSGWDDYSFKTSFTVMHFGPDAKKTELGTTKIGYKDQQHGWTSEKFSTKNISLSDDFFSLGQDVDFYRKLQGGLSADAALAVLQALKDVIADPLRLEDVKNEQVFRESLMRNVSWSVIRDQFKRVLAGKPELTSFHFSYQTNGDEQRAGVDVSFKVTPHSLPSTNVHVLIGRNGVGKTTILNDMVETILSDTTGRPHCGKFLIYDSLGSEPMPTDYFSSVVSVSFSAFDPFLFPADQPDRSKGVAYFYVGMQSPGEGPGKRPPKTTEALTEDFITSLESCFSQESKRQRWVAAIKRLESDSNFEDMDLAHLNELPTDEAIVKAHRIFSRMSSGHSIVLLTLTKLVEAVEEKTLVLMDEPESHLHPPLLSAFTRAISDLLQDRNGVAIIATHSPVVVQEAPGSCVWKLTRLRAEGRADRPERETFGENAGVLTREIFGLEVNKSGYHEVLQEAVNRGGTFESILADYQEQLGFEAQAILRKMVASRRES”, the protein production result is “failed”.

The values are drawn from a protein production outcome set (Wang et al. 2014).
